{
  "source": "paper doi:10.1101/2021.01.22.427567",
  "about": "(bioRxiv, 2021)",
  "binders": {"B1": {"name": "C121 IgG (antibody, V domains shown)", "VH": "not shown", "VL": "QSALTQPASVSGSPGQSITISCTGTSSDVGSYNLVSWYQQHPGKAPKLMIYEGSKRPSGVSNRFSGSKSGNTASLTISGLQAEDEADYYCCSYAGSSTLVFGGGTKLTVL"}},
  "biological_target": "SARS-CoV-2 S trimer (SARS-CoV-2, wild-type (Wuhan-Hu-1 …, UniProt P0DTC2))",
  "assay": "SPR",
  "data": [
    {"binder": "B1", "values": [
      {"measurement": "binding result", "result": "binds"}
    ]}
  ]
}
